Biological target: human tumor necrosis factor-α (TNFα) (human, UniProt P01375 77-233)
Experiment: cell-based or functional assay

Sequence of human tumor necrosis factor-α (TNFα) (P01375 77-233): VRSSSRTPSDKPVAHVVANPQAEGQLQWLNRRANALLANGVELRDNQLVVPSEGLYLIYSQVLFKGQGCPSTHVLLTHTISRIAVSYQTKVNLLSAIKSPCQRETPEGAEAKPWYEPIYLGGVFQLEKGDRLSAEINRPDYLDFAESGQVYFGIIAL

Row | Binder | IC50: concentration of fusion protein required to inhibit 2 ng/ml (39.2 pM) TNFα by 50%, WEHI 164 cytotoxicity assay | IL-6 secreted by FS-4 fibroblasts (ng/ml), rhTNF 0.3 ng/ml, antibody 4 µg/ml (no antibody: 1.36) | IL-6 secreted by FS-4 fibroblasts (ng/ml), rhTNF 1.5 ng/ml, antibody 4 µg/ml (no antibody: 2.00) | IL-6 secreted by FS-4 fibroblasts (ng/ml), rhTNF 7.5 ng/ml, antibody 4 µg/ml (no antibody: 2.56)
1 | p55-sf2 TNF receptor/IgG1 fusion protein (Fc fusion) QVCPQGKYIHPQNNSICCTKCHKGTYLYNDCPGPGQDTDCRECESGSFTASENHLRHCLSCSKCRKEMGQVEISSCTVDRDTVCGCRKNQYRHYWSENLFQCFNCSLCLNGTVHLSCQEKQNTVCTCHAGFFLRENECVSCSNCKKSLECTKLCLPQIGTLVTVSS | 70 pM |  |  | 
2 | chimeric mouse/human IgG1 anti-platelet mAb (7E3) (antibody, INN chains, looked up, V domains shown, IgG1) VH: EVQLQQSGTVLARPGASVKMSCEASGYTFTNYWMHWVKQRPGQGLEWIGAIYPGNSDTSYIQKFKGKAKLTAVTSTTSVYMELSSLTNEDSAVYYCTLYDGYYVFAYWGQGTLVTVSA VL: EIVLTQSPVTLSVTPGDSVSLSCRASRDISNNLHWFQQTSHESPRLLIKYASQSMSGIPSRFSGSGSGTDFTLSINSVETEDFGMYFCQQTNSWPYTFGGGTKLEIK |  | 1.6 ng/mL | 1.96 ng/mL | 2.16 ng/mL
